Legend:
Assay in all cases: enzyme inhibition assay (cleavage of a chromogenic substrate, fit to Morrison's tight binding equation); MMP-2ACT (0.6 nM), MMP-9CAT (3 nM) or MMP-14CAT (1 nM) incubated with 0-25 nM N-TIMP2 variant in 50 mM HEPES, 10 mM CaCl2, 0.05% Brij-35, 1 mM DTNB, pH 7.5, 1 h at 37 °C; then 100 µM chromogenic substrate, absorbance at 412 nm at 37 °C; Ki from three independent experiments
[1] = molecular target: human MMP-14 catalytic domain (MMP-14CAT) (human) (UniProt P50281)
[2] = molecular target: human MMP-9 catalytic domain (MMP-9CAT) (human) (UniProt P14780)
[3] = molecular target: activated MMP-2 (MMP-2ACT) (human)

Substance	Ki [1]	Ki [2]	Ki [3]
N-TIMP2-A70HqAla (from UniProt P16035 27-153) (domain or fragment)	27.2 nM	1.93 nM	16.7 nM
N-TIMP2-S2DOPA (from UniProt P16035 27-153) (domain or fragment)	14.6 nM	0.623 nM	3.14 nM
N-TIMP2-S2HqAla (from UniProt P16035 27-153) (domain or fragment)	97.7 nM	70.4 nM	97.7 nM
N-TIMP2-S69DOPA (from UniProt P16035 27-153) (domain or fragment)	21.4 nM	0.468 nM	0.46 nM

Now from value to substance:

Ki [1]	Ki [2]	Ki [3]	Substance
10.6 nM	0.452 nM	0.785 nM	N-TIMP2-A70DOPA (from UniProt P16035 27-153) (domain or fragment)
14.2 nM	0.849 nM	1 nM	N-TIMP2-L100DOPA (from UniProt P16035 27-153) (domain or fragment)
11.5 nM	0.449 nM	0.606 nM	N-TIMP2-S69HqAla (from UniProt P16035 27-153) (domain or fragment)
4.72 nM	0.543 nM	0.413 nM	N-TIMP2-Y36HqAla (from UniProt P16035 27-153) (domain or fragment)
